Results published in WO2019173771A1.

Molecular target: human CD147 on human cell lines (KYSE-70, H292, LS174T and other human-derived cell lines) (human) (UniProt P35613)
Test: FACS on the human KYSE-70 esophageal epithelial cell line, Alexa Fluor 647 anti-human IgG

B1: humanized anti-human CD147 hu3A11 antibody (3A11 Lc1 / Hc1) (antibody, V domains shown)
VH: EVQLVESGGGLVQPGGSLRLSCAASGFTFSNYWMDWVRQAPGKGLEWVGEIRLKSYNYATHYAASVKGRFTISRDDSKNSVYLQMNSLKTEDTAVYYCTAAGTDYWGQGTLVTVSS
VL: DIQMTQSPSSLSASVGDRVTITCRASQSVRTDVGWYQQKPGKAPKLLIYYSSNRYTGVPSRFSGSGSGTDFTLTISSLQPEDFATYYCQQDYSSPYTFGQGTKLEIK
Kd: 1.65 nM
